Test results: article PMC4463592

How the values were obtained:
[1] = system: human enolase alpha (ENO1) (Homo sapiens); assay: EMSA; conditions: apparent Kd, one value given for all three isoforms; none (unmodified transcript); 20 mM Tris-HCl pH 7.5, 150 mM NaCl, 10 mM MgCl2, 5 mM DTT, 10% glycerol, 0.1 mg/mL BSA, 30 C 15 min; native 8% PAGE in 0.5x Tris-borate pH 8.3, 5% glycerol
[2] = system: human enolase gamma (ENO2, neuronal) (Homo sapiens); assay: EMSA; conditions: apparent Kd, one value given for all three isoforms; none (unmodified transcript); 20 mM Tris-HCl pH 7.5, 150 mM NaCl, 10 mM MgCl2, 5 mM DTT, 10% glycerol, 0.1 mg/mL BSA, 30 C 15 min; native 8% PAGE in 0.5x Tris-borate pH 8.3, 5% glycerol
[3] = system: human enolase beta (ENO3, muscle) (Homo sapiens); assay: EMSA; conditions: apparent Kd, one value given for all three isoforms; none (unmodified transcript); 20 mM Tris-HCl pH 7.5, 150 mM NaCl, 10 mM MgCl2, 5 mM DTT, 10% glycerol, 0.1 mg/mL BSA, 30 C 15 min; native 8% PAGE in 0.5x Tris-borate pH 8.3, 5% glycerol
[4] = system: preKARS2 (precursor of mitochondrial lysyl-tRNA synthetase) (Homo sapiens); assay: EMSA; conditions: apparent Kd with human enolase gamma present; no ternary complex detected; none (unmodified transcript); 20 mM Tris-HCl pH 7.5, 150 mM NaCl, 10 mM MgCl2, 5 mM DTT, 10% glycerol, 0.1 mg/mL BSA, 30 C 15 min; native 8% PAGE in 0.5x Tris-borate pH 8.3, 5% glycerol
[5] = system: preKARS2 (precursor of mitochondrial lysyl-tRNA synthetase) (Homo sapiens); assay: EMSA, Scatchard; conditions: no enolase; 0.5 uM preKARS2 (Methods print 0.5 mM); none (unmodified transcript); 20 mM Tris-HCl pH 7.5, 150 mM NaCl, 10 mM MgCl2, 5 mM DTT, 10% glycerol, 0.1 mg/mL BSA, 30 C 15 min; native 8% PAGE in 0.5x Tris-borate pH 8.3, 5% glycerol

Substance: tRK1 (yeast tRNALys acceptor 1) T7 transcript
- Kd [1]: 2 µM
- Kd [2]: 2 µM
- Kd [3]: 2 µM
- Kd [4]: < 0.02 µM
- Kd [5]: 0.3 µM
